# Laboratory results published in patent US20250206841A1 (ADEPT THERAPEUTICS, published 2025).
# Residue numbers refer to the chain shown, from its start.
# T1: human Trop-2-His protein (human, UniProt P09758 27-274)
# T1 construct: extracellular domain; Assay paragraphs say only 'Trop-2-His'; also called hTrop-2; Kactus Cat #TRP-HM121; not shown: His tag
# T1 sequence (looked up): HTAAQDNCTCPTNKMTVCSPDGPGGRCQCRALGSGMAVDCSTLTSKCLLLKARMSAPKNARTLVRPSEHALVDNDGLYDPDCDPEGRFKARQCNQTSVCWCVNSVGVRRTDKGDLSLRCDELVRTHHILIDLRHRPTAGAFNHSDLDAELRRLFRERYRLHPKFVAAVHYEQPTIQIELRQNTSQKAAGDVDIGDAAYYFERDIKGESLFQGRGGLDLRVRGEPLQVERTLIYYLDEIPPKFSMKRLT
# T2: human Trop-2 expressed on cell surface (human, UniProt P09758 27-323)
# T2 sequence (looked up): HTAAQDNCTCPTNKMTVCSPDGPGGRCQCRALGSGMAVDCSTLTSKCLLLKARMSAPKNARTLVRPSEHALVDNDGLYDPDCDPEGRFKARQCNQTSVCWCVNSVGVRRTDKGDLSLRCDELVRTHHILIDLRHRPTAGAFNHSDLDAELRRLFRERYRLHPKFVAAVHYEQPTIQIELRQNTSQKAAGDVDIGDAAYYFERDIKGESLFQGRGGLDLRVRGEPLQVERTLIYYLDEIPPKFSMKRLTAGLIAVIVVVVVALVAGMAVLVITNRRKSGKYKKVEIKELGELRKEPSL
# T3: cynomolgus Trop-2-His protein (cynomolgus, UniProt P09758 27-274 (human entry))
# T3 construct: also called cynmolgus Trop-His; Kactus Cat #TRP-CM121; not shown: His tag
# T3 chain: T1 sequence (looked up) with M36V, S67N, G139S, I204V
# B1: 74F11/15F5 (antibody, human IgG1, V domains shown)
# VH: QEQLKESGGGLVQPGGSLKLSCKASGFDFNNYGMSWVRQAPGKGLEWIAYIYPAFHNTYYANWVNGRFTISSDNAQNTVDLQLNSLTAADTATYFCARDAGSTDYNFNLWGPGTLVTVSS
# VL: DVVMTQTPASVEAAVGGTVTIKCQASEDIERYLAWYQQKPGQPPKLLIYEASKLPSGVSSRFSGSGYGTEFTLTISGVECADAATYYCQQALTIGYVDNPFGGGSEVVVK
# notes: LEM construct: VH + rabbit IgG CH1 + human IgG1 CH2-CH3
# B2: 9D7 (antibody, V domains shown)
# VH: QSLEESGGDLVQPGASLTLTCKASGFDLNNYSILWVRQAPGKGLEWIGCIYISGGSTYYANWAKGRFAISKTSSTTVTLQMTSLTAADTATYFCARDDGTASYYLNLWGPGTLVTVSS
# VL: YDMTQTPASVSEPVGGTVTIKCQASEDIYKLLAWYQQKPGQPPKLLIYAASDLESGVPSRFKGRGSGTDYTLTISDLECADAATYYCQQAYTIGNIDNSFGGGTEVVVK
# notes: Rabbit-derived clone; LEM construct: VH + rabbit IgG CH1 + human IgG1 CH2-CH3
# B3: 10A9-2 (antibody, V domains shown)
# VH: B2 VH with S32A, I33M, C49S, S56T, Y59F, N61S, K64T, A101T
# VL: B2 VL with E12A, P13A, K30S, A49G, D52N, R64S, D69E, C79A, A80D, S99A
# B4: 10A9 (antibody, V domains shown)
# VH: B2 VH with S32A, I33M, S56T, Y59F, N61S, K64T, A101T
# VL: B2 VL with E12A, P13A, K30S, A49G, D52N, R64S, D69E, A80D, S99A
# notes: as for B2
# B5: 9D7-2 (antibody, V domains shown)
# VH: B2 VH with C49S
# VL: B2 VL with C79A
# Molecular target: T1, human Trop-2-His protein
# Test: BLI (Gator Plus), purified Ab on HFC probe
# Protocol: The affinity of the binding of the exemplary anti-Trop-2 antibodies of the present disclosure were determined. Assay was performed using Gator Plus according to the protocol recommended by Gator Bio Inc.. Briefly, human Trop-2-His (Kactus) was 1:4 fold serially diluted starting at 1 μg/ml. After three times of regeneration and neutralization of HFC probe, 1 μg/ml of antibody to be tested in Q buffer was immobilized onto HFC probe. […] The association and dissociation of human Trop-2-His antigen from antibody was measured on BLI machine Gator Plus. Affinity was calculated using Gator Bio analysis software. Blank control was used for reference subtraction. Sacituzumab govitecan was used as positive control.
Kd [nM],koff [s⁻¹],kon [M⁻¹ s⁻¹],Binder
0.01,9e-06,707000,B1
< 0.002,< 1e-06,432000,B2
2.66,0.00089,335000,B3
0.18,8.2e-05,448000,B4
2.86,0.00126,438000,B5

# Molecular target: T2, human Trop-2 expressed on cell surface
# Test: cell-based or functional assay
"EC50 of ADCC (NFAT-CD16 reporter), MCF-7 [nM]","EC50 of ADCC (NFAT-CD16 reporter), MDA-MB-231 [nM]",Binder
0.27,0.09,B1
0.28,0.09,B2
0.28,0.07,B3
0.32,0.06,B4
0.23,0.11,B5

# Molecular target: T2, human Trop-2 expressed on cell surface
# Test: cell-based or functional assay
# Remark: another data set of the same source
"Internalization %, MCF-7, 0.25 µg/ml, 1 h [%]","Internalization %, MCF-7, 0.25 µg/ml, 2 h [%]","Internalization %, MCF-7, 0.25 µg/ml, 4 h [%]","Internalization %, MCF-7, 0.5 µg/ml, 1 h [%]","Internalization %, MCF-7, 0.5 µg/ml, 2 h [%]","Internalization %, MCF-7, 0.5 µg/ml, 4 h [%]",Binder
22,35,64,22,54,50,B1
42,75,69,46,60,65,B2
28,37,48,31,47,64,B3
15,33,45,26,39,49,B4
29,42,57,28,42,52,B5

# Molecular target: T2, human Trop-2 expressed on cell surface
# Test: flow cytometry, MDA-MB-231-GFP cells
# Protocol: (§1) Cells were then resuspended in FACS buffer (1×DPBS/1% FBS) at 10⁶/ml concentration. One hundred microliter (100 μl) of cells were aliquoted into a single well in 96 well plates. The antibodies to be tested were serially diluted at 1:3 fold starting at 15 μg/mL and were then added into each well. The antibodies were mixed with cells and the mixtures were incubated on ice for 1 hour. After washing with FACS buffer, one hundred microliter (100 μl) of 1:400 diluted PE-conjugated anti-human Fc secondary antibody (Jackson Immuno Research) was added into each well and incubated for 30 minutes on ice. After washing with FACS buffer, stained cells were resuspended at diluted 7-ADD (Biolegend, used at 1:100 dilution) and analyzed on Guava 11HT or 5HT (Luminex). Data was analyzed using Flowjo software. EC₅₀ values were calculated using GraphPad Prism. Sacitnzurnab govitecan was used as positive control. Anti-HEL.hIgG1 was used as isotype negative control. Similar assay was performed using MCF-7 cells (known to express human Trop-2).
row,EC50 [nM],Binder
1,0.02,B1
2,0.03,B2
3,0.04,B3
4,0.04,B4
5,0.1,B5

# Molecular target: T2, human Trop-2 expressed on cell surface
# Test: cell-based or functional assay
# Remark: another data set of the same source
"Internalization %, MDA-MB-231, 0.25 µg/ml, 2 h [%]","Internalization %, MDA-MB-231, 0.25 µg/ml, 4 h [%]","Internalization %, MDA-MB-231, 0.5 µg/ml, 2 h [%]","Internalization %, MDA-MB-231, 0.5 µg/ml, 4 h [%]","Internalization %, MDA-MB-231, 1 µg/ml, 2 h [%]","Internalization %, MDA-MB-231, 1 µg/ml, 4 h [%]","Internalization %, MDA-MB-231, 2 µg/ml, 2 h [%]","Internalization %, MDA-MB-231, 2 µg/ml, 4 h [%]",Binder
42,52,37,45,42,48,39,46,B1
42,52,47,55,43,54,42,49,B2
46,55,44,55,43,57,45,58,B3
54,57,47,53,40,55,38,49,B4
52,63,49,58,51,62,48,59,B5

# Molecular target: T3, cynomolgus Trop-2-His protein
# Test: ELISA, coated Trop-2 protein
# Protocol: (§2) Purified antibodies were tested by ELISA to confirm their binding and affinity against human and cynomolgus Trop-2-His protein. Briefly, 96-well Maxisorp plates (Nunc) were coated with 100 μl/well of 0.5 μg/ml human (Kactus Cat #TRP-HM121, or Sino Biological, Cat #10428-HO8H) or cynomolgus Trop-2 protein (Kactus Cat #TRP-CM121, or Sino Biological, Cat #90893-CO8H) diluted in 1×PBS (GIBCO) overnight at 4° C. Plates were washed four times with 300 μl/well washing buffer (1×PBST, diluted from 20×PBST (Thermo Scientific) with distilled water)) and then blocked with 300 μl/well of blocking buffer (1×PBST/3% BSA (BSA, Sigma)) for 2 hours at RT on plate shaker at 100 rpm. Plates were washed and added with 100 μl/well of testing antibodies, which were serial diluted with assay buffer (PBST/1% BSA). The antibodies were incubated at room temperature for 2 hours on plate shaker at 100 rpm. Plates were washed. One hundred microliters (100 μl) of 1:10,000 diluted horseradish peroxidase (HRP) conjugated anti-hIgG antibody (Jackson Immuno Research) was added into each well and incubated at room temperature for 1 hour on plate shaker at 100 rpm. Plates were washed and added with 100 μl/well TMB substrate for color development in dark at room temperature for up to 10 minutes. After addition of 50 μl/well of stop solution (1N H₂SO₄), plates were read at 450 nm on a plate reader (SpectraMax M5). EC₅₀ values were calculated using Graphpad Prism. Sacituzumab govitecan, was used as positive control. Anti-HEL.hIgG1 was used as isotype control.
row,EC50 [nM],Binder
1,0.014,B1
2,0.016,B2
3,0.016,B3
4,0.015,B4
5,0.014,B5

# Molecular target: T1, human Trop-2-His protein
# Test: ELISA, coated Trop-2 protein
# Protocol: as §2
row,EC50 [nM],Binder
1,0.013,B1
2,0.017,B2
3,0.014,B3
4,0.017,B4
5,0.02,B5

# Molecular target: T2, human Trop-2 expressed on cell surface
# Test: flow cytometry, MCF-7 cells
# Protocol: as §1
row,EC50 [nM],Binder
1,0.9,B1
2,1.2,B2
3,1.8,B3
4,1.4,B4
5,1,B5
